The results in this text go back to US20210162029A1.

This assay concerns the target T1, KLK14 (UniProt Q9P0G3).
T1 sequence (looked up): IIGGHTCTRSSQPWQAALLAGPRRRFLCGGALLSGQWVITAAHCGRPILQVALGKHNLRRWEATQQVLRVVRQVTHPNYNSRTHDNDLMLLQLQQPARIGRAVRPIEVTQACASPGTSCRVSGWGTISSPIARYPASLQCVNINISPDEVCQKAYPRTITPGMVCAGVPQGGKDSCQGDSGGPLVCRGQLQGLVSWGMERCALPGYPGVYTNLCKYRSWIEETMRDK
Put plainly: cell-based or functional assay.

B1: LEKTI Domain 6 (protein)
chain: ESGKATSYAELCSEYRKLVRNGKLACTRENDPIQGPDGKVHGNTCSMCEVFFQAEEEEKKKKEGKSRN
For B1, the % inhibition (mean) of KLK14 (30 nM) evoked FLIPR signal in TRPV1 cells; LEKTI D6 at 0.003 µM was -4%, the % inhibition (mean) of KLK14 (30 nM) evoked FLIPR signal in TRPV1 cells; LEKTI D6 at 0.01 µM was 21.6%, the % inhibition (mean) of KLK14 (30 nM) evoked FLIPR signal in TRPV1 cells; LEKTI D6 at 0.03 µM was -11.1% and the % inhibition (mean) of KLK14 (30 nM) evoked FLIPR signal in TRPV1 cells; LEKTI D6 at 0.1 µM is 12.4%. For the same molecule, the % inhibition (mean) of KLK14 (30 nM) evoked FLIPR signal in TRPV1 cells; LEKTI D6 at 0.3 µM came to 16.8%, the % inhibition (mean) of KLK14 (30 nM) evoked FLIPR signal in TRPV1 cells; LEKTI D6 at 1 µM was 46.9%, the % inhibition (mean) of KLK14 (30 nM) evoked FLIPR signal in TRPV1 cells; LEKTI D6 at 3 µM is 56.4% and the % inhibition (mean) of KLK14 (30 nM) evoked FLIPR signal in TRPV1 cells; LEKTI D6 at 10 µM turned out to be 39.3%. In addition, the % inhibition (mean) of KLK14 (30 nM) evoked FLIPR signal in TRPV4 cells; LEKTI D6 at 0.003 µM was -24.1%, the % inhibition (mean) of KLK14 (30 nM) evoked FLIPR signal in TRPV4 cells; LEKTI D6 at 0.01 µM is -11%, the % inhibition (mean) of KLK14 (30 nM) evoked FLIPR signal in TRPV4 cells; LEKTI D6 at 0.03 µM was 9.9% and the % inhibition (mean) of KLK14 (30 nM) evoked FLIPR signal in TRPV4 cells; LEKTI D6 at 0.1 µM was 6.4%. Moreover, the % inhibition (mean) of KLK14 (30 nM) evoked FLIPR signal in TRPV4 cells; LEKTI D6 at 0.3 µM amounted to 1.5%, the % inhibition (mean) of KLK14 (30 nM) evoked FLIPR signal in TRPV4 cells; LEKTI D6 at 1 µM was determined as 6.3%, the % inhibition (mean) of KLK14 (30 nM) evoked FLIPR signal in TRPV4 cells; LEKTI D6 at 3 µM is 26.7% and the % inhibition (mean) of KLK14 (30 nM) evoked FLIPR signal in TRPV4 cells; LEKTI D6 at 10 µM worked out at 73%.
